Assay results from PMC11857287.

Substrate: Nc1ncnc2c1ncn2[C@@H]1O[C@H](COP(=O)(O)OP(=O)(O)OP(=O)(O)OP(=O)(O)OC[C@H]2O[C@@H](n3cnc4c(N)ncnc43)[C@H](O)[C@@H]2O)[C@@H](O)[C@H]1O
Test: fluorescent ADP assay, Lineweaver-Burk
Assay type: biochemical, Streptococcus pyogenes
Conditions: Mg2+-dependent, heading states optimal conditions (optimum pH 7.0, 45 °C), 0.1 mg/mL enzyme
Source text: fluorescent ADP assay, Lineweaver-Burk on Sp-yqeK

B1: Sp-yqeK (Streptococcus pyogenes) (protein)
chain: MTYEDYLPYSRTELLAKIAEQMSPKRFKHVLGVEKAALSLAECYGCNPDKAGLAALLHDYAKECPDQVFLDLIDKYQLSPELAKWNNNVWHGMVGIYKIQEDLGLKDKDILRAIEIHTVGAAEMTLLDKVLYVADYIEEGRIFPLVDDARKIAKLDLNQAVAYETVNTVAYLASKAQPIFPQTLDTYNAFCSYLKEY
notes: pET28b (Nde I/Xho I), E. coli BL21(DE3), Ni-NTA purified; about 23 kDa; dimer in the asymmetric unit
B1 gave a Km of 216.4 ± 21.65 µM.
